In patent publication US20060019335A1, “Compositions and methods to promote c-IAP autodegradation” (priority 2004, published 2006):
Entries after “also recorded” stand apart in the source; their conditions may differ.

Assays:
c-IAP1 [1] = assay: Co-transfection of HeLa cells with c-IAP1 and Smac plasmids, Western blot; assay type: cell-based, human; conditions: for auto-ubiquitylation (E3 activity) of c-IAP1: co-transfection, FIG. 2A
Procedure: (§1) Transfection of cultured Cells—HeLa cells were grown in DMEM supplemented with 10% fetal bovine serum. Cells were seeded onto 6-well plates the day before transfection and transfected at 70% confluence by using Lipofectin combined with Plus reagent (Invitrogen) according to the manufacture's protocols. The IAP expression plasmids (3 μg each for c-IAP1, c-IAP2 and XIAP, and 250 ng each for Livin αand Livin β) together with 2.5 μg of Smac expression plasmids or pcDNA3.1(−) blank plasmid were used for single-well transfection in the absence of antibiotics. The cells were harvested 12 hours after the transfection and lysed with 0.5% CHAPS in 20 mM HEPES (pH 7.4), 10 mM KCl, 1 mM MgCl2 and 1 mM DTT. The lysates were centrifuged and the protein concentrations of the supernatants were quantified by the modified Bradford method (36).
(§2) Western Blot analysis—Proteins were resolved by SDS-PAGE and transferred to nitrocellulose filters. The filters were blocked with 5% milk and probed with antibodies as indicated. The signals were visualized with the enhanced chemiluminescence method.
(§3) To investigate the effect of Smac polypeptide on IAP protein levels, HeLa cells were transfected with the expression vectors for Smac and various IAPs. Briefly, HeLa cells were either transfected with IAP alone (Lane 2, 4 and 6), or together with Smac polypeptide (Lane 3, 5 and 7), or with Smac polypeptide alone (Lane 1). Equal amounts of cell lysates (7 μg) were immunoblotted with either the HRP-conjugated anti-FLAG antibody (shown in the top panel) in order to detect N-terminal 3×FLAG tagged IAPs, or with the anti-c-Myc antibody (bottom panel) to detect C-terminal c-Myc tagged Smac. The ubiquitin fusion technique was used to secure the production of mature Smac protein with the expected N-terminal AVPI motif (6, 37).
(§4) Because it is known that the His^588 residue in the RING finger domain is important for the IAP E3 activity (22), this residue was mutated to test whether Smac stimulated the ubiquitylation-mediated degradation of both c-IAP1 and c-IAP2. In each case, His^588 in c-IAP1 and His^574 in c-IAP2 was mutated to Ala (H588A mutant and H574A mutant, respectively) and the results are depicted in FIGS. 2A and 2B. The c-IAP1 WT or H588A mutant plasmids together with either Smac WT or Smac ΔA mutant, or with pcDNA3.1 (−) blank plasmid were co-transfected into HeLa cells (FIG. 2A). The c-IAP2 WT or H574A mutant plasmids together with either Smac WT or Smac ΔA mutant, or with pcDNA3.1 (−) blank plasmid were co-transfected into HeLa cells (FIG. 2B). As controls, HeLa cells were also transfected with either Smac WT or ΔA plasmids together with the blank p3×FLAG-CMV-7 plasmid. The transfected cells were cultivated either in the absence (see lanes 1-7 of FIGS. 2A and 2B) or in the presence (see lanes 8-14 of FIGS. 2A and 2B) of MG132. Equal amounts of soluble proteins (7 μg) from the transfected cells were immunoblotted with either the HRP-conjugated anti-FLAG antibody (see top panel of FIGS. 2A and 2B) to detect N-terminal 3×FLAG tagged IAPs, or with the anti-c-Myc antibody (see middle panel of FIGS. 2A and 2B) to detect C-terminal c-Myc tagged Smac. The anti-Actin immunoblotting results were to show equal protein loading (see bottom panel of FIGS. 2A and 2B).

c-IAP1 [2] = assay: In vitro ubiquitylation assay of purified c-IAP1 and BIR deletion mutants; assay type: biochemical, human; conditions: for c-IAP1 auto-ubiquitylation in vitro: full length c-IAP1, UbCH6 as E2, FIG. 7A
Procedure: In vitro ubiquitylation assays—In vitro ubiquitylation assays were carried out as previously described (29). IAP proteins (200 nM) were incubated with or without Smac polypeptide for 2 hours at 30° C. in a reaction system containing 50 mM Tris-HCl (pH 7.5), 50 mM NaCl, 2 mM Mg-ATP, 20 μM mammalian ubiquitin, 100 nM rabbit ubiquitin-activating enzyme (E1) and 400 nM of recombinant human ubiquitin-conjugating enzymes (E2). The reactions were stopped by adding equal volumes of 2×SDS sample loading buffer followed by Western Blot analysis.
To determine whether Smac promotes auto-ubiquitylation of XIAP, purified XIAP (without tag) was incubated for 2 hours at 30° C. either with or without different concentrations of Smac or with Smac ΔA in the reconstituted ubiquitylation reaction system (Ub Mix) consisting of 50 mM Tris-HCl (pH 7.5), 50 mM NaCl, 2 mM Mg-ATP, 20 μM mammalian ubiquitin, 100 nM rabbit ubiquitin-activating enzyme (E1) and 400 nM UbCH6 (E2). The reactions were stopped by adding equal volumes of 2×SDS sample loading buffer and the products were subjected to SDS-PAGE followed by immunoblotting with anti-XIAP antibody. The purified XIAP was active in directing poly-ubiquitylation. But the auto-ubiquitylation of XIAP was not enhanced by Smac.
Smac ΔA and the peptide Smac-7M were used as negative controls. The reactions were stopped by adding equal volumes of 2×SDS sample loading buffer and the products were subjected to SDS-PAGE followed by immunoblotting with anti-c-IAP1 antibody. The arrows indicate the unmodified full length or deleted c-IAP1.
To verify this, stepwise deletion was performed of the first BIR (ΔBIR1, residues 1-161), the first two BIRs (ΔBIR1-2, residues 1-265), or all the three BIR domains (ΔBIR1-2-3, residues 1-339) from c-IAP1. All these mutants and the full-length wild type c-IAP1 were purified as a non-tagged form by using the pTYB11 Intein system (New England Biolabs).

c-IAP2 = target: T1, c-IAP2 (Homo sapiens, UniProt Q13489); assay: Co-transfection of HeLa cells with c-IAP2 and Smac plasmids, Western blot; assay type: cell-based; conditions: for ubiquitylation and degradation (E3 activity) of c-IAP2: co-transfection, FIG. 2B
T1 construct: produced not only the expected full length c-IAP1 or c-IAP2; expressed in transfected cells; host or cells: HeLa
T1 sequence (Q13489 whole entry): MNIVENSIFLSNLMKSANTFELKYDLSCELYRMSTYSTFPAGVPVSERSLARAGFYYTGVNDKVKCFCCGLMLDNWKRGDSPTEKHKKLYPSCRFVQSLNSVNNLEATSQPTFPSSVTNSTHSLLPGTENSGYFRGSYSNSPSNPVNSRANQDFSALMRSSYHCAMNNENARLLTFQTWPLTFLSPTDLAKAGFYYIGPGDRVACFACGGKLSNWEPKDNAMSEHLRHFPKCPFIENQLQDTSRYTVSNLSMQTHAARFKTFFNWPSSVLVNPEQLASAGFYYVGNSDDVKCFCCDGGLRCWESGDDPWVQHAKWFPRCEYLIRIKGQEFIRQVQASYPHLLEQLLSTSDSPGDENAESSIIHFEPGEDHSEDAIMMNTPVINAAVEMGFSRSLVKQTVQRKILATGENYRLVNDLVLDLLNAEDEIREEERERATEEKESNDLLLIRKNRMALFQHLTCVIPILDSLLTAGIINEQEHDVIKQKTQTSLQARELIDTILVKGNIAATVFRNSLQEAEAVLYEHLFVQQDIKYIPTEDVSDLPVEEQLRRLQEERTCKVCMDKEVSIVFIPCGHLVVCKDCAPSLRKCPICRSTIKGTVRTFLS
Procedure: as §1, §2, §3, §4

[3] = mature Smac co-expressed, FIG. 1
[4] = listed as Smac mutant lacking the initial Ala residue

| level of c-IAP2 (c-IAP2; co-expression, absence of MG132, FIG. 2B) | protein level of c-IAP2 (c-IAP2; [3]) | Molecule | level of wild type c-IAP1 (c-IAP1 [1]; co-expression, absence of MG132, FIG. 2A) | levels of non-/mono-/di-ubiquitylated and highly ubiquitylated c-IAP1 forms (c-IAP1 [1]; co-expression, presence of MG132, FIG. 2A) | level of E3-negative H588A c-IAP1 (c-IAP1 [1]; either in the absence or in the presence of MG132) | protein level of c-IAP1 (c-IAP1 [1]; [3]) | auto-ubiquitylation activity of c-IAP1 ΔBIR1-2-3 (c-IAP1 [2]; all three BIR domains deleted (residues 1-339), FIG. 7A) | auto-ubiquitylation activity of c-IAP1 ΔBIR1 (c-IAP1 [2]; first BIR deleted (residues 1-161), FIG. 7A) | auto-ubiquitylation activity of c-IAP1 ΔBIR1-2 (c-IAP1 [2]; first two BIRs deleted (residues 1-265), FIG. 7A) | c-IAP1 auto-ubiquitylation in vitro (c-IAP1 [2]) | ubiquitylation and degradation (E3 activity) of c-IAP2 (c-IAP2) | auto-ubiquitylation (E3 activity) of c-IAP1 (c-IAP1 [1]) | auto-ubiquitylation (E3 activity) of c-IAP1 (c-IAP1 [1]; [4]) | c-IAP1 auto-ubiquitylation in vitro (c-IAP1 [2]; [4]) | E3 activity of c-IAP1ΔBIR1 (c-IAP1 [2]; peptides and controls, FIG. 7B) |
| --- | --- | --- | --- | --- | --- | --- | --- | --- | --- | --- | --- | --- | --- | --- | --- |
| nearly non-detectable level | significantly decreased | Smac: wild type (WT) Smac polypeptide from Homo sapiens, SEQ ID NO 1, 239 amino acids; second mitochondria-derived activator of caspase (protein, listed as Homo sapiens) MAALKSWLSRSVTSFFRYRQCLCVPVVANFKKRCFSELIRPWHKTVTIGFGVTLCAVPIAQKSEPHSLSSEALMRRAVSLVTDSTSTFLSQTTYALIEAITEYTKAVYTLTSLYRQYTSLLGKMNSEEEDEVWQVIIGARAEMTSKHQEYLKLETTWMTAVGLSEMAAEAAYQTGADQASITARNHIQLVKLQVEEVHQLSRKAETKLAEAQIEELRQKTQEEGEERAESEQEAYLRED | nearly complete disappearance of c-IAP1; also recorded: nearly non-detectable level | reduction in the level of non-ubiquitylated and mono-/di-ubiquitylated wild type c-IAP1 and a concomitant increase in the level of highly ubiquitylated c-IAP1 forms | did not cause a drastic change | significantly decreased | could no longer be enhanced | significantly enhanced | significantly enhanced | significantly enhanced c-IAP1 auto-ubiquitylation | strongly promoted the ubiquitylation and degradation of c-IAP2 |  |  |  |  |
|  |  | Smac ΔA: Smac mutant lacking the initial Ala (Ala deletion mutant polypeptide), used as negative control (protein, UniProt Q9NR28 22-239, looked up, variant A1*) Diablo IAP-binding …: LCVPVVANFKKRCFSELIRPWHKTVTIGFGVTLCVPIAQKSEPHSLSSEALMRRAVSLVTDSTSTFLSQTTYALIEAITEYTKAVYTLTSLYRQYTSLLGKMNSEEEDEVWQVIIGARAEMTSKHQEYLKLETTWMTAVGLSEMAAEAAYQTGADQASITARNHIQLVKLQVEEVHQLSRKAETKLAEAQIEELRQKTQEEGEERAESEQEAYLRED |  |  |  |  |  |  |  | failed to promote such auto-ubiquitylation | did not promote the E3 activity | did not enhance the auto-ubiquitylation of c-IAP1 | did not promote the E3 activity | did not promote the E3 activity | failed to activate c-IAP1 |
